The record followed here is the nanobody polyreactivity screen of Harvey et al. (2022).

A short description of the data set: yeast display, Sf9 membrane polyspecificity reagent, FACS + sequencing; frameworks hold sequencing errors. The gist of the method:
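Galactose induction of a Saccharomyces cerevisiae BJ5465 synthetic nanobody display library ran 36–48 hours. The cells were then stained for 1 hour at 4 °C with 10% biotinylated, detergent-solubilized Sf9 membrane reagent, pulled down on streptavidin microbeads and FACS-sorted into low and high (top ~1%) gates on expression and reagent-binding fluorescence. Labels for polyreactivity follow the gate of origin.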
“QVQLVESGGGLVQAGGSLRLSCAASGIIFSYNAMGWYRQAPGKERELVAAITRRGTRTYYADSVKGRFTISRDNAKNTVYLQMNSLKPEDSAVYYCAADYVRPGTKYDYWGQGTQVTVSS”: the “polyreactivity (PSR sort gate)” value is recorded as “high polyreactivity”.

Take “QVQLVESGGGLVQAGGSLRLSCAASGIIFSYNAMGWYRQAPGKERELVAAITRTGSTNYADSVKGRFTISRDNAKNTVYLQMNSLKPEDTAVYYCAAGWGYGRYRHVGYRMDYWGQGTQVTVSS”: the “polyreactivity (PSR sort gate)” value is given as “high polyreactivity”.

With “QVQLVESGGGLVQAGGSLRLSCAASGIIFTDNALGWYRQAPGKERELVATISWSTDNTYYADSVKGRFTISRDNAKNTVYLQMNSLKPEDTAVYYCAAEEYYAYWYQYDYWGQGTQVTVSS”, the “polyreactivity (PSR sort gate)” value is recorded as “low polyreactivity”.

Take “QVQLVESGGGLVQAGGSLRLSCAASGIIFTGYTMGWYRQAPGKERELVAAITWRGGSTYYADSVKGRFTISRDNAKNTVYLQMNSLKPEDTAVYYCAAEGWYSWDDDYWGQGTQVTVSS”: the “polyreactivity (PSR sort gate)” value is “low polyreactivity”.

In the case of “QVQLVESGGGLVQAGGSLRLSCAASGIIFTKYAMGWYRQAPGKERELVAAITASGGSTYYADSVKGRFTISRDNAKNTVYLQMNSLKPEDTAVYYCAARSQSRYGYWGQGTQVTVSS”, the “polyreactivity (PSR sort gate)” value was “high polyreactivity”.

On to “QVQLVESGGGLVQAGGSLRLSCAASGIIFTKYVMGWYRQAPGKERELVAAINTDGGSTRYADSVKGRFTISRDNAKNTVYLQKNSLKPEDTAVYYCAAVSSRRPGYEYYYWGQGTQVTVSS”, for which the “polyreactivity (PSR sort gate)” value is listed as “high polyreactivity”.

Consider “QVQLVESGGGLVQAGGSLRLSCAASGIIFTSNTMGWYRQAPGKEREFVASINWNGSSTYADSVKGRFTISRDNAKNTVYLQMNSLKPEDTAVYYCAAEASPRLYRKYDYWGQGTQVTVSS”, for which the “polyreactivity (PSR sort gate)” value is “low polyreactivity”.

Consider “QVQLVESGGGLVQAGGSLRLSCAASGIIFTYNAMGWSRQAPGKERELVAAINSSGGSTNYADSVKGRFTISRDNAKNTVYLQMNSLKPEDTAVYYCAARDATYYGVWRYYGIDDYWGQGTQVTVSS”, for which the “polyreactivity (PSR sort gate)” value was “low polyreactivity”.

As to “QVQLVESGGGLVQAGGSLRLSCAASGIIFTYYAMGWYRQAPGKERELVAAISVSGSSTYYADSVKGRFTISRDNAKNTVYLQMNSLKPEDTAVYYCAARYQWGTRGFGYWGQGTQVTVSS”, the “polyreactivity (PSR sort gate)” value is “high polyreactivity”.

“QVQLVESGGGLVQAGGSLRLSCAASGIIFVENAMGWYRQAPGKERDLVASGDSTYADSVKGRFTIARDNAKNTVYLQMNSLKPEDNAVYYCNTDGYPRLYIYDYWGQGTQVTVSS”: the “polyreactivity (PSR sort gate)” value is “low polyreactivity”.

As for “QVQLVESGGGLVQAGGSLRLSCAASGIIFVENAMGWYRQAPGKERELVAAISWDGGSTYYADSVKGRFTISRDNAKNTVYLQMNSLKPEDTAVYYCAADLTISYSQEYYYWGQGTQVTVSS”, the “polyreactivity (PSR sort gate)” value was “low polyreactivity”.

On to “QVQLVESGGGLVQAGGSLRLSCAASGIIFVQYAMGWYRQAPGKERELVAGITRRGGSTYYADSVKGRFTISRDNAKNTVYLQMNSLKTEDTAVFYCAATRPGDVLYRNEYWGQGTQVTVSS”, for which the “polyreactivity (PSR sort gate)” value is “high polyreactivity”.

With “QVQLVESGGGLVQAGGSLRLSCAASGIIFVRYAMGWYRQAPGKERELVAAISSGGGSTYYADSVKGRFTISRDNAKNTVYLQMNSLKPEDTAVYYCATVVYPYSPRYDYWGQGTQVTVSS”, the “polyreactivity (PSR sort gate)” value is listed as “high polyreactivity”.

Turning to “QVQLVESGGGLVQAGGSLRLSCAASGIIFVRYAMGWYRQAPGKERELVAAITRNGGRTYYADSVKGRFTISRDNAKNTVYLQMNSLKPEDTAVYYCAAYPAYPGTLEMDYWGQGTQVTVSS”, the “polyreactivity (PSR sort gate)” value is reported as “high polyreactivity”.

With “QVQLVESGGGLVQAGGSLRLSCAASGIIFVSNAMGWYRQAPGKERELVATINWSDDSTYYADSVKGRFTISRDNAKNTVYLQMNSLKPEDTAVYYCNKELYPVGDYEYWGLGTQVTVSS”, the “polyreactivity (PSR sort gate)” value was “low polyreactivity”.

As for “QVQLVESGGGLVQAGGSLRLSCAASGIIFVYNTMGWYRQAPGKERELVAAISYSGGGTYYADSVKGRFTISRDNAKNTVYLQMNSLKPEDTAVYYCAAETYYAPYDYWGQGTQVTVSS”, the “polyreactivity (PSR sort gate)” value is listed as “high polyreactivity”.
